Positions count from the first letter of the chain named. Names and notes keep the numbering of the source.

To fix the notation:
B1: Recombinant His-tagged WT αB-crystallin (natural protein, UniProt P02511 1-175, looked up)
chain: MDIAIHHPWIRRPFFPFHSPSRLFDQFFGEHLLESDLFPTSTSLSPFYLRPPSFLRAPSWFDTGLSEMRLEKDRFSVNLDVKHFSPEELKVKVLGDVIEVHGKHEERQDEHGFISREFHRKYRIPADVDPLTITSSLSSDGVLTVNGPRKQVSGPERTIPITREEKPAVTAAPKK
notes: αB-crystallin, wild type; Surmise: N-terminal His tag from pET 28b
B2: Recombinant His-tagged αB-crystallin N146D (natural protein, UniProt P02511 1-175, looked up)
chain: B1 chain with N146D
notes: αB-crystallin with the deamidation-mimicking change N146D, made by site-directed mutagenesis of the pET 28b construct of WT αB; Surmise: N-terminal His tag from pET 28b; also called αB N146D
B3: Recombinant His-tagged αB-crystallin N78D (natural protein, UniProt P02511 1-175, looked up)
chain: B1 chain with N78D
notes: αB-crystallin with the deamidation-mimicking change N78D, made by site-directed mutagenesis of the pET 28b construct of WT αB; Surmise: N-terminal His tag from pET 28b; also called αB N78D
B4: YFP WT αB-crystallin (natural protein, UniProt P02511 1-175, looked up)
chain: B1 chain
notes: αB-crystallin, wild type, in pZS Yellow1-N1; Surmise: whole αB-crystallin (1-175, as the domain limits imply) with the fluorescent protein at the C-terminus (N1 vector); Expressed as ~46 kDa protein; also called WT YFP αB-crystallin; YFP αB; source: HeLa, transfected, in live cells
B5: YFP αB N78D crystallin (natural protein, UniProt P02511 1-175, looked up)
chain: B1 chain with N78D
notes: αB-crystallin N78D, made by site-directed mutagenesis of the pZS Yellow1-N1 construct of αB-crystallin; Same limits as m12; source: HeLa, transfected, in live cells
B6: YFP αB N146D crystallin (natural protein, UniProt P02511 1-175, looked up)
chain: B1 chain with N146D
notes: αB-crystallin N146D, made by site-directed mutagenesis of the pZS Yellow1-N1 construct of αB-crystallin; Same limits as m12; source: HeLa, transfected, in live cells
B7: YFP αB NTD (N-terminal domain of αB-crystallin, 1–64 amino acids) (domain or fragment, UniProt P02511 1-64, looked up)
chain: MDIAIHHPWIRRPFFPFHSPSRLFDQFFGEHLLESDLFPTSTSLSPFYLRPPSFLRAPSWFDTG
notes: αB-crystallin N-terminal domain, residues 1-64; also called αB NTD-YFP; source: HeLa, transfected, in live cells
B8: YFP αB CD (core domain of αB-crystallin, 65–146 amino acids) (domain or fragment, UniProt P02511 65-146, looked up)
chain: LSEMRLEKDRFSVNLDVKHFSPEELKVKVLGDVIEVHGKHEERQDEHGFISREFHRKYRIPADVDPLTITSSLSSDGVLTVN
notes: αB-crystallin core domain, residues 65-146; also called αB CD-YFP; source: HeLa, transfected, in live cells
B9: YFP αB CTE (C-terminal extension of αB-crystallin, 147–175 amino acids) (domain or fragment, UniProt P02511 147-175, looked up)
chain: GPRKQVSGPERTIPITREEKPAVTAAPKK
notes: αB-crystallin C-terminal extension, residues 147-175; also called αB CTE-YFP; source: HeLa, transfected, in live cells

The target in the first assay is T1, Recombinant His-tagged WT βA3-crystallin (UniProt P05813 1-215).
T1 construct: βA3-crystallin, wild type; Surmise: cloning into Nhe I/Xho I of pET 28b with a stop codon in the insert gives an N-terminal His tag; no cleavage is mentioned
The experiment in a line: SPR; BIACORE 2000; βA3-crystallin immobilised on a CM5 chip by EDC/NHS to ~2500 RU; analytes 5 μM-25 μM at 20 μL/min; room temperature; 50 mM sodium phosphate, pH 7.8, 150 mM NaCl; regeneration with 1 M NaCl; duplicates; 1:1 Langmuir fit. As to conditions: both partners purified.
What is called Kd is the free concentration of one partner at which half of the binding sites on the other are occupied at equilibrium, for simple one-to-one binding. With B1, the dissociation constant (Kd) was 5.75 nM.
Consider B2, for which the Kd stood at 5.05 nM.
Take B3: the equilibrium dissociation constant (Kd) amounted to 2.46 nM.

In the next assay the target is T2, CFP WT βA3-crystallin (UniProt P05813 1-215).
T2 construct: βA3-crystallin, wild type; Surmise: N1 vectors place the fluorescent protein at the C-terminus of the insert; Expressed as ~51 kDa protein; degraded products were also seen on blots; also called CFP βA3-crystallin; βA3- CFP; source: HeLa, transfected, in live cells
The experiment in a line: FRET or BRET; FLIM-FRET in live HeLa cells co-transfected with CFP βA3-crystallin (donor) and YFP-tagged acceptors; donor life-time after 405 nm pulsed excitation; E = 1-TFRET/TCFP with TCFP 2.8 ns; 5-6 cells from 3 samples. As to conditions: partners not purified.
As for B4, the FRET efficiency turned out to be 18% and the “mean life-time of the donor CFP βA3-crystallin” value (shortened to “mean life-time”) is 2.4 ± 0.2 ns.
In the same order, the values of B5 are 36% and 1.6 ± 0.3 ns.
For B6 the same measures were 22% and 2.2 ± 0.3 ns.
Consider B7, for which the FRET efficiency was 32% and the “mean life-time” value is 2.1 ± 0.3 ns.
In the case of B8, the FRET efficiency is 14% and the “mean life-time” value was found to be 2.5 ± 0.2 ns.
As for B9, the FRET efficiency worked out at 14% and the “mean life-time” value worked out at 2.5 ± 0.2 ns.

These data come from PMC4691197 (PLoS ONE, 2015).
